Source: the supplement of paper PMC7877785
± gives the uncertainty stated by the source.

Test: self-splicing fitness, log relative to wild type (ln ratio); higher = more splicing; Tetrahymena group I intron in knt gene, E. coli kanamycin selection, DiMSum; sequences stand for … in CUCUCU…GGAGGGAAAAGUUAUCAGGCAUGCACCUGGUAGCUAGUCUUUAAACCAAUAGAUUGCAUCGGUUUAAAAGGCAAGACCGUCAAAUUGCGGGAAAGGGGUCAACAGCCGUUCAGUACCAAGUCUCAGGGGAAACUUUGAGAUGGCCUUGCAAAGGGUAUGGUAAUAAGCUGACGGACAUGGUCCUAACCACGCAGCCAAGUCCUAAGUCAACAGAUCUUCUGUUGAUAUGGAUGCAGUUCACAGACUAAAUGUCGGUCGGGGAAGAUGUAUUCUUCUCAUAAGAUAUAGUCGGACCUCUCCUUAAUGGGAGCUAGCGGAUGAAGUGAUGCAACACUGGAGCCGCUGGGAACUAAUUUGUAUGCGAAAGUAUAUUGAUUAGUUUUGGAGUACUCGUGGUCG
Method in brief: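 Six replicate transformations of E. coli BL21(DE3) with a pET-22b(+) library were grown overnight at 37°C or 30°C. The library randomised all eight P1ex-region intron nucleotides, the intron lying in the knt kanamycin-resistance gene, and plates were LB agar with or without 25 μg/mL kanamycin plus 100 μg/mL carbenicillin, 50 μM IPTG and 0.2% rhamnose. Pooled colonies were amplicon-sequenced on an Illumina HiSeq 2500, and fitness is the DiMSum error-weighted combination of wild-type-normalised replicate fold changes, kanamycin versus none.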

Sequence	self-splicing fitness (ln) (30 °C)	self-splicing fitness (ln) (37 °C)
UCACAGCAAUAUUACGCUUA	-1.66 ± 0.15	-0.902 ± 0.12
UCACAGCAAUAUUACGGAUU	-4.45 ± 0.13	-2.38 ± 0.096
UCACAGCAAUAUUACGGCGC	-2.08 ± 0.1	-1.02 ± 0.12
UCACAGCAAUAUUACGGGUC	-3.67 ± 0.16	-2.79 ± 0.14
UCACAGCAAUAUUACGGUGA	-3.99 ± 0.33	-2.77 ± 0.21
UCACAGCAAUAUUACGGUGG	-3.45 ± 0.14	-2.71 ± 0.18
UCACAGCAAUAUUACGGUUC	-2.91 ± 0.11	-2.7 ± 0.19
UCACAGCAAUAUUACGGUUG	-1.41 ± 0.087	-0.981 ± 0.11
UCACAGCAAUAUUACGUAAG	-1.98 ± 0.083	-1.33 ± 0.1
UCACAGCAAUAUUACGUACC	-2.45 ± 0.23	-2.37 ± 0.23
UCACAGCAAUAUUACGUGGG	-3.34 ± 0.12	-2.68 ± 0.12
UCACAGCAAUAUUACGUGUU	-3.9 ± 0.13	-2.46 ± 0.11
UCACAGCAAUAUUACGUUCA	-0.499 ± 0.074	-0.438 ± 0.078
UCACAGCAAUAUUACGUUGC	-4.42 ± 0.23	-2.95 ± 0.23
UCACAGCAAUAUUACGUUGU	-4.29 ± 0.18	-2.14 ± 0.12
UCAGAGCAAUAUUACGAAAA	–	-2.13 ± 0.48
UCAGAGCAAUAUUACGACCU	-2.87 ± 0.36	–
UCAGAGCAAUAUUACGAGCG	-4.27 ± 0.36	-1.23 ± 0.14
UCAGAGCAAUAUUACGAGGC	-1.74 ± 0.43	–
UCAGAGCAAUAUUACGAUGA	-0.825 ± 0.2	0.109 ± 0.21
UCAGAGCAAUAUUACGAUUG	-4 ± 0.37	-2.41 ± 0.24
UCAGAGCAAUAUUACGCAAC	-3.8 ± 0.48	-1.91 ± 0.29
UCAGAGCAAUAUUACGCACU	-2.95 ± 0.44	-2.62 ± 0.48
UCAGAGCAAUAUUACGCGCA	-1.19 ± 0.2	-1.69 ± 0.29
UCAGAGCAAUAUUACGCGGG	-2.22 ± 0.14	-1.99 ± 0.23

Sequence	self-splicing fitness (ln) (30 °C)	self-splicing fitness (ln) (37 °C)
UCAGAGCAAUAUUACGCGUC	-2.62 ± 0.18	–
UCAGAGCAAUAUUACGCUUU	-2.7 ± 0.32	-2.84 ± 0.48
UCAGAGCAAUAUUACGGCUU	-3.38 ± 0.34	-2.19 ± 0.35
UCAGAGCAAUAUUACGGGAU	-3.39 ± 0.47	-2.58 ± 0.48
UCAGAGCAAUAUUACGGGGA	-1.48 ± 0.11	-1.1 ± 0.13
UCAGAGCAAUAUUACGGGUG	-3.2 ± 0.2	-1.46 ± 0.14
UCAGAGCAAUAUUACGGUAC	-2.06 ± 0.3	–
UCAGAGCAAUAUUACGGUCC	-2.18 ± 0.24	–
UCAGAGCAAUAUUACGGUGA	-0.792 ± 0.084	-0.193 ± 0.1
UCAGAGCAAUAUUACGUACC	-3.69 ± 0.25	-1.59 ± 0.37
UCAGAGCAAUAUUACGUAUC	-2.86 ± 0.36	-1.41 ± 0.31
UCAGAGCAAUAUUACGUCCG	-2.17 ± 0.2	-1.14 ± 0.25
UCAGAGCAAUAUUACGUGAA	-2.01 ± 0.15	-1.2 ± 0.21
UCAGAGCAAUAUUACGUGAC	-3.69 ± 0.28	-1.9 ± 0.23
UCAUAGCAAUAUUACGCAUU	-2.86 ± 0.14	-3.04 ± 0.22
UCAUAGCAAUAUUACGCCUU	-3.75 ± 0.4	-1.52 ± 0.33
UCAUAGCAAUAUUACGCGUG	-2.85 ± 0.12	-1.67 ± 0.11
UCAUAGCAAUAUUACGCGUU	-3.38 ± 0.27	-3.03 ± 0.27
UCAUAGCAAUAUUACGCUUC	–	-2.26 ± 0.23
UCAUAGCAAUAUUACGGGGG	-2.69 ± 0.19	-2.27 ± 0.21
UCAUAGCAAUAUUACGGGUC	-2.94 ± 0.42	-2.9 ± 0.35
UCAUAGCAAUAUUACGUAGA	-1.88 ± 0.097	-1.8 ± 0.12
UCAUAGCAAUAUUACGUCAU	-2.74 ± 0.29	-3.16 ± 0.27
UCAUAGCAAUAUUACGUCUC	-1.43 ± 0.32	–
UCAUAGCAAUAUUACGUGAU	-3.82 ± 0.17	-2.62 ± 0.2

Sequence	self-splicing fitness (ln) (30 °C)	self-splicing fitness (ln) (37 °C)
UCAUAGCAAUAUUACGUGCG	-1.26 ± 0.11	-0.279 ± 0.1
UCAUAGCAAUAUUACGUGGC	–	-2.73 ± 0.43
UCAUAGCAAUAUUACGUGGU	-3.42 ± 0.16	-2.8 ± 0.16
UCCAAGCAAUAUUACGAAGA	-0.503 ± 0.086	-0.326 ± 0.087
UCCAAGCAAUAUUACGAAGU	-1.09 ± 0.14	-1.57 ± 0.15
UCCAAGCAAUAUUACGACAC	-2.35 ± 0.31	-1.42 ± 0.38
UCCAAGCAAUAUUACGACUU	-3.57 ± 0.17	-2.54 ± 0.18
UCCAAGCAAUAUUACGAGGG	-3.08 ± 0.2	-2.31 ± 0.31
UCCAAGCAAUAUUACGAGUG	-2.75 ± 0.13	-2.03 ± 0.11
UCCAAGCAAUAUUACGCAGG	-3.56 ± 0.43	-2.05 ± 0.26
UCCAAGCAAUAUUACGCAUG	-4.8 ± 0.31	-2.27 ± 0.19
UCCAAGCAAUAUUACGCGGG	-3.94 ± 0.24	-3.8 ± 0.36
UCCAAGCAAUAUUACGCGGU	-2.56 ± 0.13	-1.92 ± 0.16
UCCAAGCAAUAUUACGCUUA	-3.43 ± 0.18	-1.86 ± 0.11
UCCAAGCAAUAUUACGGCCU	-2.33 ± 0.29	-2.6 ± 0.27
UCCAAGCAAUAUUACGGCUA	-1.98 ± 0.14	-0.476 ± 0.11
UCCAAGCAAUAUUACGGCUU	-3.94 ± 0.4	-1.53 ± 0.25
UCCAAGCAAUAUUACGGUCC	-2.7 ± 0.37	-1.04 ± 0.22
UCCAAGCAAUAUUACGUAUC	-4.43 ± 0.27	-1.93 ± 0.16
UCCAAGCAAUAUUACGUCAC	-3.72 ± 0.39	-3.28 ± 0.43
UCCAAGCAAUAUUACGUCUU	-3.92 ± 0.19	-1.46 ± 0.14
UCCAAGCAAUAUUACGUGAG	-2.37 ± 0.098	-0.996 ± 0.097
UCCAAGCAAUAUUACGUGGG	-3.89 ± 0.23	-2.71 ± 0.18
UCCAAGCAAUAUUACGUUGG	-2.99 ± 0.11	-1.89 ± 0.14
UCCCAGCAAUAUUACGAAAG	-3.84 ± 0.33	-3.06 ± 0.17

Sequence	self-splicing fitness (ln) (30 °C)	self-splicing fitness (ln) (37 °C)
UCCCAGCAAUAUUACGACCG	-3.22 ± 0.3	-3.01 ± 0.31
UCCCAGCAAUAUUACGAUGU	-2.1 ± 0.088	-1.2 ± 0.12
UCCCAGCAAUAUUACGCCAA	-2.7 ± 0.33	-1.63 ± 0.3
UCCCAGCAAUAUUACGCGAC	-4.31 ± 0.29	-3.36 ± 0.31
UCCCAGCAAUAUUACGCGAU	-3.29 ± 0.21	-2.64 ± 0.21
UCCCAGCAAUAUUACGCGUG	-3.49 ± 0.18	-2.34 ± 0.2
UCCCAGCAAUAUUACGCGUU	-1.11 ± 0.075	-0.493 ± 0.089
UCCCAGCAAUAUUACGCUCC	-1.78 ± 0.22	-0.443 ± 0.3
UCCCAGCAAUAUUACGCUGA	-2.26 ± 0.12	-3.02 ± 0.21
UCCCAGCAAUAUUACGGAAA	-2.01 ± 0.19	-0.716 ± 0.13
UCCCAGCAAUAUUACGGAAC	-4.36 ± 0.27	-2.65 ± 0.18
UCCCAGCAAUAUUACGGACU	-2.81 ± 0.11	-1.21 ± 0.096
UCCCAGCAAUAUUACGGAGA	-1.18 ± 0.084	-0.484 ± 0.11
UCCCAGCAAUAUUACGGCGA	-0.651 ± 0.063	-0.335 ± 0.078
UCCCAGCAAUAUUACGGCUU	-2.62 ± 0.14	-1.65 ± 0.17
UCCCAGCAAUAUUACGGUCU	-1.83 ± 0.11	-0.794 ± 0.11
UCCCAGCAAUAUUACGUAAG	-3.88 ± 0.18	-1.97 ± 0.17
UCCCAGCAAUAUUACGUACU	-3.77 ± 0.19	-0.776 ± 0.14
UCCGAGCAAUAUUACGACUU	-2.69 ± 0.33	-2.98 ± 0.43
UCCGAGCAAUAUUACGAGGG	-4.27 ± 0.25	-1.93 ± 0.22
UCCGAGCAAUAUUACGAUUC	-2.88 ± 0.43	-2.79 ± 0.48
UCCGAGCAAUAUUACGCAAC	-2.57 ± 0.3	-1.66 ± 0.33
UCCGAGCAAUAUUACGCAGG	-3.19 ± 0.17	-1.88 ± 0.19
